Measured values: the Human Domainome abundance scans (Beltran et al. 2025)
± gives the uncertainty stated by the source.

B1: Chromodomain-helicase-DNA-binding protein 5, residues 338 to 390; numbered along this chain, Q8TDI0 (parent)
chain: YETDHQDYCEVCQQGGEIILCDTCPRAYHLVCLDPELEKAPEGKWSCPHCEKE
B2: SWI/SNF complex subunit SMARCC1, residues 620 to 663; numbered along this chain, Q92922 (parent)
chain: GREWTEQETLLLLEALEMYKDDWNKVSEHVGSRTQDECILHFLR

Variants of: B1
Assay: abundance fitness (aPCA) (normalised: wild type 0, dead -1); higher = more abundant; growth selection in yeast, the domain comes from the species named
Conditions: Homo sapiens

First: E2T
Second: E2G
The abundance fitness of the first is higher: 0.488 ± 0.21 for the first, 0.072 ± 0.1 for the second.

Going from E2K to E2W, the abundance fitness falls from 0.529 ± 0.2 to -0.092 ± 0.22.

Going from E2A to E2S, the abundance fitness rises from -0.071 ± 0.13 to 0.451 ± 0.15.

Compared with E2V, E2C is higher in abundance fitness: -0.484 ± 0.12 for the first, 0.423 ± 0.28 for the second.

E2M and E2I are within error of each other in abundance fitness: 0.789 ± 0.31 for the first, 0.814 ± 0.25 for the second.

E2H and E2R are within error of each other in abundance fitness: 0.022 ± 0.36 for the first, 0.267 ± 0.12 for the second.

E2F and E2L are within error of each other in abundance fitness: 0.018 ± 0.26 for the first, 0.287 ± 0.16 for the second.

First: E2P
Second: E2N
The abundance fitness of the first is lower: -0.175 ± 0.22 for the first, 0.405 ± 0.28 for the second.

Y8N and Y8P are within error of each other in abundance fitness: 0.227 ± 0.18 for the first, 0.33 ± 0.13 for the second.

Going from Y8E to Y8V, the abundance fitness falls from 0.306 ± 0.12 to 0.054 ± 0.1.

Y8W and Y8M are within error of each other in abundance fitness: -0.111 ± 0.14 for the first, 0.102 ± 0.13 for the second.

Y8T and Y8D are within error of each other in abundance fitness: -0.088 ± 0.14 for the first, -0.199 ± 0.25 for the second.

Compared with Y8R, Y8C is lower in abundance fitness: 0.211 ± 0.1 for the first, -0.337 ± 0.23 for the second.

Y8A and Y8L are within error of each other in abundance fitness: 0.142 ± 0.089 for the first, 0.06 ± 0.1 for the second.

Y8K and Y8G are within error of each other in abundance fitness: -0.067 ± 0.13 for the first, 0.078 ± 0.11 for the second.

First: Y8F
Second: Y8H
The abundance fitness of the first is lower: -0.204 ± 0.25 for the first, 0.349 ± 0.17 for the second.

Y8I and Y8Q are within error of each other in abundance fitness: 0.241 ± 0.16 for the first, 0.437 ± 0.15 for the second.

Going from Y8S to E10H, the abundance fitness falls from 0.014 ± 0.11 to -0.394 ± 0.2.

E10C and E10G are within error of each other in abundance fitness: -0.001 ± 0.17 for the first, 0.015 ± 0.11 for the second.

E10D and E10A are within error of each other in abundance fitness: -0.14 ± 0.18 for the first, -0.064 ± 0.1 for the second.

Going from E10F to Q6E, the abundance fitness falls from 0.256 ± 0.17 to -0.186 ± 0.22.

Q6G and Q6R are within error of each other in abundance fitness: -0.313 ± 0.12 for the first, -0.183 ± 0.14 for the second.

Going from Q6A to Q6F, the abundance fitness falls from 0.193 ± 0.29 to -0.234 ± 0.13.

Q6V and Q6D are the same in abundance fitness: -0.199 ± 0.12 for the first, -0.199 ± 0.23 for the second.

Q6L and Q6Y are within error of each other in abundance fitness: -0.286 ± 0.11 for the first, -0.422 ± 0.2 for the second.

Going from Q6C to Q6W, the abundance fitness falls from -0.153 ± 0.13 to -0.421 ± 0.12.

Q6S and Q6P are within error of each other in abundance fitness: -0.047 ± 0.12 for the first, 0.25 ± 0.21 for the second.

Compared with Q6H, C9V is lower in abundance fitness: -0.286 ± 0.18 for the first, -1.07 ± 0.15 for the second.

First: C9Y
Second: C9W
The abundance fitness of the first is higher: -0.489 ± 0.12 for the first, -1.08 ± 0.18 for the second.

C9T and C9E are within error of each other in abundance fitness: -0.643 ± 0.13 for the first, -0.611 ± 0.15 for the second.

C9N and C9S are within error of each other in abundance fitness: -0.764 ± 0.21 for the first, -0.809 ± 0.17 for the second.

C9A and C9M are within error of each other in abundance fitness: -0.726 ± 0.12 for the first, -0.803 ± 0.16 for the second.

C9P and C9R are within error of each other in abundance fitness: -0.558 ± 0.15 for the first, -0.752 ± 0.12 for the second.

C9Q and C9K are within error of each other in abundance fitness: -1.04 ± 0.27 for the first, -0.804 ± 0.18 for the second.

C9L and C9D are within error of each other in abundance fitness: -0.844 ± 0.13 for the first, -0.618 ± 0.21 for the second.

C9F and C9I are within error of each other in abundance fitness: -1.18 ± 0.22 for the first, -0.774 ± 0.3 for the second.

C9H and C9G are within error of each other in abundance fitness: -0.397 ± 0.23 for the first, -0.593 ± 0.095 for the second.

T3C and T3H are within error of each other in abundance fitness: -0.267 ± 0.18 for the first, -0.407 ± 0.29 for the second.

First: T3N
Second: T3S
The abundance fitness of the first is lower: -0.37 ± 0.23 for the first, 0.077 ± 0.12 for the second.

T3W and T3R are within error of each other in abundance fitness: 0.236 ± 0.12 for the first, 0.119 ± 0.094 for the second.

T3F and T3A are within error of each other in abundance fitness: 0.275 ± 0.19 for the first, 0.098 ± 0.11 for the second.

T3E and T3Q are within error of each other in abundance fitness: 0.268 ± 0.18 for the first, 0.05 ± 0.17 for the second.

T3V and T3K are within error of each other in abundance fitness: 0.027 ± 0.12 for the first, 0.264 ± 0.16 for the second.

First: T3Y
Second: T3M
The abundance fitness of the first is lower: 0.171 ± 0.19 for the first, 0.567 ± 0.16 for the second.

T3D and T3I are within error of each other in abundance fitness: 0.023 ± 0.23 for the first, 0.465 ± 0.22 for the second.

Compared with T3G, H5Q is lower in abundance fitness: 0.342 ± 0.091 for the first, -0.046 ± 0.16 for the second.

Going from H5D to H5R, the abundance fitness rises from -0.81 ± 0.22 to 0.192 ± 0.089.

H5W and H5E are within error of each other in abundance fitness: -0.038 ± 0.1 for the first, 0.024 ± 0.13 for the second.

H5K and H5P are within error of each other in abundance fitness: 0.021 ± 0.14 for the first, 0.124 ± 0.13 for the second.

H5A and H5S are within error of each other in abundance fitness: 0.488 ± 0.12 for the first, 0.293 ± 0.1 for the second.

Going from H5C to H5N, the abundance fitness falls from 0.394 ± 0.21 to -0.072 ± 0.17.

H5G and H5L are within error of each other in abundance fitness: 0.185 ± 0.084 for the first, 0.375 ± 0.11 for the second.

Going from H5I to H5M, the abundance fitness rises from 0.079 ± 0.17 to 0.497 ± 0.12.

Going from H5V to H5T, the abundance fitness falls from 0.464 ± 0.088 to 0.116 ± 0.12.

H5F and D7F are within error of each other in abundance fitness: -0.144 ± 0.3 for the first, -0.725 ± 0.4 for the second.

D7M and D7Q are within error of each other in abundance fitness: 0.167 ± 0.21 for the first, 0.176 ± 0.17 for the second.

D7S and D7G are within error of each other in abundance fitness: -0.257 ± 0.16 for the first, -0.252 ± 0.12 for the second.

D7N and D7A are within error of each other in abundance fitness: -0.129 ± 0.097 for the first, -0.045 ± 0.15 for the second.

D7L and D7I are within error of each other in abundance fitness: -0.527 ± 0.21 for the first, -0.317 ± 0.28 for the second.

D7Y and D7H are within error of each other in abundance fitness: -0.676 ± 0.39 for the first, -0.296 ± 0.36 for the second.

D7C and D7K are within error of each other in abundance fitness: -0.669 ± 0.24 for the first, -0.313 ± 0.15 for the second.

D7R and D7E are within error of each other in abundance fitness: -0.154 ± 0.14 for the first, -0.255 ± 0.16 for the second.

Compared with D7V, D7W is lower in abundance fitness: 0.096 ± 0.12 for the first, -0.613 ± 0.18 for the second.

D7T and D4R are within error of each other in abundance fitness: 0.112 ± 0.15 for the first, 0.054 ± 0.09 for the second.

D4Q and D4N are within error of each other in abundance fitness: 0.368 ± 0.18 for the first, 0.106 ± 0.13 for the second.

Going from D4P to D4A, the abundance fitness rises from -0.049 ± 0.14 to 0.244 ± 0.099.

D4I and D4E are within error of each other in abundance fitness: 0.03 ± 0.15 for the first, 0.081 ± 0.11 for the second.

D4K and D4V are within error of each other in abundance fitness: 0.073 ± 0.18 for the first, 0.117 ± 0.089 for the second.

Compared with D4Y, D4M is higher in abundance fitness: -0.337 ± 0.37 for the first, 0.627 ± 0.13 for the second.

D4W and D4T are within error of each other in abundance fitness: -0.014 ± 0.11 for the first, -0.008 ± 0.12 for the second.

D4F and D4G are within error of each other in abundance fitness: 0.04 ± 0.16 for the first, 0.001 ± 0.083 for the second.

D4C and D4L are within error of each other in abundance fitness: 0.128 ± 0.14 for the first, 0.095 ± 0.095 for the second.

D4H and Y1E are within error of each other in abundance fitness: -0.056 ± 0.16 for the first, 0.321 ± 0.3 for the second.

Y1F and Y1V are within error of each other in abundance fitness: -0.041 ± 0.22 for the first, 0.159 ± 0.36 for the second.

Y1W and Y1K are within error of each other in abundance fitness: 0.122 ± 0.23 for the first, 0.125 ± 0.48 for the second.

Y1C and Y1R are within error of each other in abundance fitness: 0.245 ± 0.22 for the first, 0.063 ± 0.47 for the second.

Y1N and Y1D are within error of each other in abundance fitness: -0.336 ± 0.39 for the first, -0.839 ± 0.33 for the second.

First: Y1S
Second: Y1G
The abundance fitness of the first is lower: -0.481 ± 0.38 for the first, 0.239 ± 0.27 for the second.

Variants of: B2
Assay: as above
Conditions: Homo sapiens

Compared with GREWTEQETLLLLEALEMYKDDWNKVSEHVGSRTQDECILHFVR, GREWTEQETLLLLEALEMYKDDWNKVSEHVGSRTQDECILHFWR is lower in abundance fitness: 0.209 ± 0.058 for the first, 0.076 ± 0.074 for the second.

First: GREWTEQETLLLLEALEMYKDDWNKVSEHVGSRTQDECILHFYR
Second: GREWTEQETLLLLEALEMYKDDWNKVSEHVGSRTQDECILHFTR
The abundance fitness of the first is lower: 0.126 ± 0.085 for the first, 0.584 ± 0.063 for the second.
